Data taken from US9999679B2, “Aminofucoidan as a vector for fibrinolysis in thrombotic diseases” (INSTITUT NATIONAL DE LA SANTE ET DE LA RECHERCHE MEDICALE, priority 2013, dated 2018).

How the values were obtained:
[1] = test system: thrombus performed in total blood, including Red Blood Cells; assay: Rotative thromboelastography (Rotem) lysis of thrombus in total blood; settings: plasma PAI-1 present, ratio (t-PA/fuco) 1/5 or 1/10
From the text: Thromboelastography experiments have been carried out on a rotative thromboelastograph (Rotem®) as described in Boulaftali et al. (Boulaftali Y, Ho Tin Noe B, Pena A, Loyau S, Venisse L, Francois D, Richard B, Arocas V, Collet J P, Jandrot-Perrus M, Bouton M C. PLatelet Protease Nexin-1, a Serpin that Strongly Influences Fibrinolysis and Thrombolysis. Circulation. 2011; 123:1326-1334) and Mallet et al. (Mallet S V, Cox D J A. Thromboelastograph Analysis. British J of anaest. 1992; 69:307-313).
In a third series of in vitro experiments, the ability of aminofucoidans to accelerate the lysis of a thrombus performed in total blood, including Red Blood Cells, has been tested with rotative thromboelastography (Rotem®). In this experiment dilysine-fucoidan vectorized t-PA, in a ratio (t-PA/fuco) of 1/5 or 1/10 increased the thrombus lysis to 75% as compared to t-PA alone (55%). In this experiment, the plasma PAI-1 was present.

[2] = Product No 173 from American diagnostic; cited from earlier work
platelet-rich thrombus = assay: Ex vivo fibrinolysis of platelet-rich plasma clots (fluorescence release, clot weight loss); parameters: species or system Human; settings: 17H/37° C. incubation; p<0.01; FIG. 1
Experimental: (§1) Human platelet-rich and -poor plasma (PRP and PPP) were obtained from citrated blood after two centrifugation steps: at 120 g for 15 minutes followed by a second centrifugation step at 1200 g for 12 min. PRP was adjusted to 3×10^8 platelets per mL with poor platelet plasma (PPP) and supplemented with 75 μg/mL of fluorescein isothiocyanate-fibrinogen. Clot formation was induced by adding 10 mmol/L CaCl2 in glass tubes and incubated for 1 hour at 37° C. After retraction, clots were washed in Hank's buffer (Sigma), rapidly dryed on an absorbent paper and weighed. To assess fibrinolysis, PRP or PPP clots were incubated in Hanks' buffer containing the vectorized t-PA complexes (corresponding to 10 UI of t-PA, or 1.72 μg/mL) for 1 h at room temperature. Clots were transferred in a new eppendorf containing 500 μl of Hank's buffer supplemented with 1 μM of human plasminogen. The kinetic of fibrinolysis was evaluated by measuring the release of fluorescence from the clot to the supernatant with a spectrofluorimeter (485/520 nm). […]
(§2) Aminofucoidans were used in variables molecular ratio to t-PA (10 UI (corresponding to 1.72 μg/ml): the 1/10 ratio was used for mono-amine fucoidans and 1/5 for poly-amine fucoidans. Evaluation criteria were the initial lysis kinetic (appearance of fluorescence in supernatant) and the final thrombus weight loss at 17H/37° C. incubation. […]

platelet-poor thrombus = assay: Ex vivo fibrinolysis of platelet-poor plasma clots (fluorescence release, clot weight loss); parameters: species or system Human
Experimental: as §1, §2

mesenteric thrombi = assay: FeCl3-induced mesenteric vessel thrombosis, intravital imaging of thrombolysis; format: in vivo; settings: mice, intravenous; 1 hour following FeCl3-induced injury (~45 min following treatment)
From the text: The group has recently published the ability of intravital microscopy to follow the lysis of thrombus in vivo. Thus, validation of t-PA vectorization by amino-fucoidans with intravital microscopy has been carried out according to the protocols described in Boulaftali et al. (Boulaftali et al., 2011, Platelet protease nexin-1, a serpin that strongly influences fibrinolysis and thrombolysis. Circulation; Boulaftali et al., 2012, The mouse dorsal skinfold chamber as a model for the study of thrombolysis by intravital microscopy. Thromb Haemost).
The thrombus is induced by local application of iron oxide on exposed vessels in mice. Fluorescent t-PA or a mixture of amino-fucoidans and t-PA are intravenously injected after iron oxide local application The fluorescence of t-PA and thrombus lysis were followed by intravital transillumination of the mesenteric tissue.
More precisely, after anesthesia (100 mg/kg ketamine, 10 mg/kg xylazine) and laparotomy, mouse mesenteric vessels were exposed for induction of thrombosis and video-microscopic intravital observation. […] Platelet deposition and thrombus growth were monitored for 15 minutes following injury and fluorescent t-PA±DiLysine-fucoidan was then injected intravenously to thrombolysis of the partially occlusive-formed thrombi. […]

B1: t-PA: Single-chain recombinant tissue plasminogen activator, secreted by CHO cells transfected with human t-PA cDNA (American diagnostica) (protein, listed as Homo sapiens)
chain: MDAMKRGLCCVLLLCGAVFVSPSQEIHARFRRGARSYQVICRDEKTQMIYQQHQSWLRPVLRSNRVEYCWCNSGRAQCHSVPVKSCSEPRCFNGGTCQQALYFSDFVCQCPEGFAGKCCEIDTRATCYEDQGISYRGTWSTAESGAECTNWNSSALAQKPYSGRRPDAIRLGLGNHNYCRNPDRDSKPWCYVFKAGKYSSEFCSTPACSEGNSDCYFGNGSAYRGTHSLTESGASCLPWNSMILIGKVYTAQNPSAQALGLGKHNYCRNPDGDAKPWCHVLKNRRLTWEYCDVPSCSTCGLRQYSQPQFRIKGGLFADIASHPWQAAIFAKHRRSPGERFLCGGILISSCWILSAAHCFQERFPPHHLTVILGRTYRVVPGEEEQKFEVEKYIVHKEFDDDTYDNDIALLQLKSDSSRCAQESSVVRTVCLPPADLQLPDWTECELSGYGKHEALSPFYSERLKEAHVRLYPSSRCTSQHLLNRTVTDNMLCAGDTRSGGPQANLHDACQGDSGGPLVCLNDGRMTLVGIISWGLGCGQKDVPGVYTKVTNYLDWIRDNMRP
modifications: single-chain recombinant; /mol_type=“protein” /organism=“Homo sapiens”
For B1, the thrombus lysis [1] is given as 55%, the specific activity [2] is given as “approximately 580 000 UI/mg” and the “loss of platelet-rich thrombus weight” value (platelet-rich thrombus) is given as 30%. For the same molecule, the “thrombi weight loss at 17H” value (platelet-poor thrombus) was 97% and the “vessel occlusion / perfusion of injured vessels” value (mesenteric thrombi) was “occlusive thrombosis of injured vessels had occurred in all 3 mice”.
